Assay results reported in US20160369264A1 (HOWARD HUGHES MEDICAL INSTITUTE, published 2016).
Substitutions are numbered along the chain they refer to. Names may count otherwise.

B1: p6_9H_KDKCKXX (designed binder)
chain: MGFQGPLGSHMTISPKEKEKIAIHEAGHDLMGLVSDDDDKVHKISIIPRGMALGVTQQLPIEDKHIYDKKDLYNKILVLLGGRAAEEVFFGKDGITTGAENDLQRATDLAYRMVSMWGMSDKVGPIAIRRVANPFLGGMTTAVDTSPDLLREIDEEVKRIITEQYEKAKAIVEEYKLPLKFVVAALLHSETILCSLFAEVFKTFGIELKDKCK
notes: p6_9H with 33 C-terminal residues (including 6xHis) removed
B2: p6_9 (designed binder, not shown: small tags and cut ends)
chain: MGFQGPLGSHMTISPKEKEKIAIHEAGHDLMGLVSDDDDKVHKISIIPRGMALGVTQQLPIEDKHIYDKKDLYNKILVLLGGRAAEEVFFGKDGITTGAENDLQRATDLAYRMVSMWGMSDKVGPIAIRRVANPFLGGMTTAVDTSPDLLREIDEEVKRIITEQYEKAKAIVEEYKLPLKFVVAALLESETILCSLFAEVFKTFGIELKDKCKKEELFDKDRKSEENKELKSEEVKEEVV
notes: Alpha helical hexamer (C6), layer group P 6; Carries A29D from gene synthesis; also called Original Design p6_9 (Control); precursor to p6_9H
B3: p6_9 E188R (designed binder, not shown: small tags and cut ends)
chain: B2 chain with E188R
B4: p6_9 E188H, D29A (designed binder, not shown: small tags and cut ends)
chain: B2 chain with D29A, E188H
notes: p6_9H with the gene-synthesis mutation A29D reverted
B5: p6_9 T203V (designed binder, not shown: small tags and cut ends)
chain: B2 chain with T203V
B6: p6_9 L193T, A198V (designed binder, not shown: small tags and cut ends)
chain: B2 chain with L193T, A198V
B7: p6_9 L193T, S189K (designed binder, not shown: small tags and cut ends)
chain: B2 chain with S189K, L193T
B8: p6_9 L193T, A198V, S189K (designed binder, not shown: small tags and cut ends)
chain: B2 chain with S189K, L193T, A198V
B9: p6_9 E188H, F218Y (designed binder, not shown: small tags and cut ends)
chain: B2 chain with E188H, F218Y
notes: p6_9H (which already carries E188H) with F218Y
B10: p6_9 E188H, cut 6xHis (designed binder)
chain: B2 chain with E188H
notes: p6_9H with the 6xHis tag removed
B11: p6_9 L193T, A198V, S189K, cut 6xHis (designed binder)
chain: B2 chain with S189K, L193T, A198V
B12: p6_9 E199L (designed binder, not shown: small tags and cut ends)
chain: B2 chain with E199L
B13: p6_9 L193T (designed binder, not shown: small tags and cut ends)
chain: B2 chain with L193T
B14: p6_9 E188H, L193T, A198V (designed binder, not shown: small tags and cut ends)
chain: B2 chain with E188H, L193T, A198V
notes: p6_9H (which already carries E188H) with L193T and A198V
B15: p6_9H (designed binder, not shown: small tags and cut ends)
chain: B2 chain with E188H
notes: Hexamer (C6), layer group P 6; also called E188H (p6_9H)
B16: p6_9HM (designed binder, not shown: small tags and cut ends)
chain: B2 chain with E188H, V200M
notes: p6_9H (which already carries E188H) with V200M; also called E188H, V200M (p6_9HM)
B17: p6_9 A184S (designed binder, not shown: small tags and cut ends)
chain: B2 chain with A184S
B18: p4Z_9 (designed binder)
chain: MEAVRAYELQLELQQIRTLRQSLELKAKELEYAAGIITSLKSERRIYRAFSDLLVEITKLEAIEHIARSIIVYVREIAKLAKRETEIMEELSKLRAPLSLE
notes: Designed self-assembling protein; tetramer (C4) that packs into a P 4 21 2 lattice; also called design p4Z_9
B19: p3Z-42 TDRD2 fusion (designed binder)
chain: MGSRSLQLDKLVNEMTQHYENSVPEDLTVHVGDIVAAPLPTNGSWYRARVLGTLENGNLDLYFVDFGDNGDCPLKDLRALRSDFLSLPFQAIECSGSGSGGMHNNRLQLSRLERVYQSEQAEKLLLAGVMLRDPARFDLRGSLTHGRDVEIDTNVIIEGNVSLGNRVKIGTGCVIKNSAIGDDCEISPYTVVEDAVLAAACTIGPFARLRPGAVLLEGAHVGNFVEMKKAVLGKGSKAGHLTYLGDAAIGDNVNIGAGTITCNYDGANKFTTIIGDDVFVGSDTQLVAPVSVGKGATIAAGTTVTRNVGANALAISRVPQTQKEGWRRPVKKK
B20: p3Z_11 (designed binder)
chain: MEEVVLITVPSESVARIIAKALVASRLAACVNIVPGLTSIYRWQGSVVEDQELLLLVKTTTHAFPKLKHTVKIIHPYTVPEIVALPIAEGNREYLDWLRENTGLE
notes: Designed self-assembling protein; Expressed from pet29b in E. coli; also called design p3Z_11
B21: p3Z-42 Human Acylphosphatase fusion (designed binder)
chain: MAEGNTLISVDYEIFGKVQGVFFRKHTQAEGKKLGLVGWVQNTDRGTVQGQLQGPISKVRHMQEWLETRGSPKSHIDKANFNNEKVILKLDYSDFQIVKGSGSGSGGMHNNRLQLSRLERVYQSEQAEKLLLAGVMLRDPARFDLRGSLTHGRDVEIDTNVIIEGNVSLGNRVKIGTGCVIKNSAIGDDCEISPYTVVEDAVLAAACTIGPFARLRPGAVLLEGAHVGNFVEMKKAVLGKGSKAGHLTYLGDAAIGDNVNIGAGTITCNYDGANKFTTIIGDDVFVGSDTQLVAPVSVGKGATIAAGTTVTRNVGANALAISRVPQTQKEGWRRPVKKK
B22: p3Z-42 Human Glutaredoxin fusion (designed binder)
chain: MGAGTAQEFVNCKIQPGKVVVFIKPTCPYCRRAQEILSQLPIKQGLLEFVDITATNHTNEIQDYLQQLTGARTVPRVFIGKDCIGGCSDLVSLQQSGELLTRLKQIGALQGSGSGGMHNNRLQLSRLERVYQSEQAEKLLLAGVMLRDPARFDLRGSLTHGRDVEIDTNVIIEGNVSLGNRVKIGTGCVIKNSAIGDDCEISPYTVVEDAVLAAACTIGPFARLRPGAVLLEGAHVGNFVEMKKAVLGKGSKAGHLTYLGDAAIGDNVNIGAGTITCNYDGANKFTTIIGDDVFVGSDTQLVAPVSVGKGATIAAGTTVTRNVGANALAISRVPQTQKEGWRRPVKKK
B23: p3Z_42 (designed binder)
chain: MHNNRLQLSRLERVYQSEQAEKLLLAGVMLRDPARFDLRGSLTHGRDVEIDTNVIIEGNVSLGNRVKIGTGCVIKNSAIGDDCEISPYTVVEDAVLAAACTIGPFARLRPGAVLLEGAHVGNFVEMKKAVLGKGSKAGHLTYLGDAAIGDNVNIGAGTITCNYDGANKFTTIIGDDVFVGSDTQLVAPVSVGKGATIAAGTTVTRNVGANALAISRVPQTQKEGWRRPVKKKLE
notes: Designed self-assembling protein; beta-helix trimer (C3) that packs into a P 3 2 1 lattice; Expressed from pet29b in E. coli or with a cell-free kit; also called design p3Z_42
B24: p3Z-42 Ferrodoxin fusion (designed binder)
chain: MLTVEVEVKITADDENKAEEIVKRVIDEVEREVQKQYPNATITRTLTRDDGTVELRIKVKADTEEKAKSIIKLIEERIEEELRKRDPNATITRTVRTEVGSSWSGSGSGGMHNNRLQLSRLERVYQSEQAEKLLLAGVMLRDPARFDLRGSLTHGRDVEIDTNVIIEGNVSLGNRVKIGTGCVIKNSAIGDDCEISPYTVVEDAVLAAACTIGPFARLRPGAVLLEGAHVGNFVEMKKAVLGKGSKAGHLTYLGDAAIGDNVNIGAGTITCNYDGANKFTTIIGDDVFVGSDTQLVAPVSVGKGATIAAGTTVTRNVGANALAISRVPQTQKEGWRRPVKKK

Biological target: the molecule itself
Experiment: sizes of crystals observed in the pellet; negative-stain EM (self-assembly)

Binding result, binds:
B1
B2
B3
B4
B5
B6
B7
B8
B9
B10
B11
B12
B13
B14
B15
B16
B17

Biological target: the molecule itself
Experiment: self-assembly of tetramers; negative-stain EM of E. coli pellet

Binding result, binds:
B18

Biological target: the molecule itself
Experiment: self-assembly of fusion trimers; negative-stain EM

Binding result, binds:
B19

Biological target: the molecule itself
Experiment: self-assembly of trimers; negative-stain EM of E. coli pellet

Binding result, binds:
B20

Biological target: the molecule itself
Experiment: self-assembly of fusion trimers; negative-stain EM of E. coli pellet
Experimental: (§1) Synthetic genes of each fusion were obtained and protein was expressed in Escherichia coli cells using a standard T7 based expression vector (Table 2). The protein expression was verified by sodium dodecyl sulfate polyacrylamide gel electrophoresis (SDS-PAGE) after separation of the soluble and insoluble cell portions. Samples of observed protein in the cellular pellets were analyzed for array formation by negative-stain Transmission Electron Microscopy (TEM). […] It is worth noting that 5/7 of the remaining fusions either shared a similar sequence and unknown but potentially similar structures (2 unpublished binding proteins) or were either the same molecular weight or much larger than the p3Z-42 monomer protein (3 proteins between ˜25-35 kDa).
On the basis of these initial hits, the general properties of the proteins that crystallized, specifically molecular weight, were evaluated. 16 further fusions were identified based either on smaller molecular weight sizes (13 proteins between 9 and 13 kDa) or other important targets close to this molecular weight range (3 proteins between 14 and 17 kDa). These second screen fusions were genetically fused and checked for array formation as before. […]

Binding result, binds:
B21
B22

Biological target: the molecule itself
Experiment: self-assembly of trimers; cell-free expression, negative-stain EM
Experimental: (A) Design p3Z_42 expressed using an in vitro expression kit. This negative-stain micrograph was made 4 hours after adding pure plasmid DNA of p3Z_42 to the kit components without purification. A Fourier transform is shown from a crystal in the micrograph showing the same P 3 2 1 lattice as visualized in p3Z_42 E. coli expression. (B) Fast dilution re-folded p4Z_9 protein. Large arrays form analogous to those seen from E. coli expressed protein. A Fourier transform is shown highlighting the square lattice. (C) Dialysis re-folded p4Z_9 protein. Large fibrous structures form with the same square array pattern as in E. coli expressed proteins. Fourier transform is shown highlighting the square repeat pattern. (D) Purified and concentrated protein from p6_9H soluble fractions. Arrays were not visualized at this point. […] (E) p6_9H array formation from material as in (d). These arrays formed after further concentration of protein as in (d) and heat application in a water bath. […] Fourier transform is shown with the same P 6 arrangement seen in the pellet sample. Scale bars=50 nm.

Binding result, binds:
B23

Biological target: the molecule itself
Experiment: self-assembly of fusion trimers; negative-stain TEM of E. coli pellet
Experimental: as §1

Binding result, binds:
B24
